Substrate in this series: NCCCCNCCCN
Briefly: Inhibition of deoxyhypusine synthase ([3H]deoxyhypusine formation from [3H]spermidine), IC50/Ki. Type of series: biochemical, rat. To be noted: pH 9.3; 37.0 °C.

Protocol: A typical assay mixture included 0.2M glycine, 1 mM dithiothreitol, 0.5 mM NAD^+, 2.4 micromolar (μM) [1,8-^3 H] spermidine, 1 μM ec-eIF-5A(Lys), 25 micrograms (μg) bovine serum albumin, and 3-15 units of enzyme in a total volume of 20 microliters (μl). Incubations were carried out at pH 9.3 and 37° C. for 1 hour. […] Percent inhibition was plotted versus log inhibitor concentration in order to obtain graphic estimates of IC50 values, i.e., the concentrations inhibiting [^3 H]deoxyhypusine production by 50%. The IC50 values reported in the tables were calculated by fitting the data points to equation 1 where x=% inhibition and I is the inhibitor concentration. […] The nature of the inhibition was determined by plotting reciprocal velocities of [^3 H]deoxyhypusine production against reciprocals of [^3 H]spermidine concentrations at a constant fixed level of ec-eIF-5A(Lys) (1 μM) and at set inhibitor concentrations. […] Estimates of Ki values were made by fitting the data to equation 2; wherein v is the velocity of the reaction, V is the maximum velocity, S is the substrate concentration, Km is Michaeli's constant, Ki is the inhibition constant, and I is the inhibitor concentration.

B1: deoxyhypusine synthase from rat testis (Rattus norvegicus) (protein)
chain: MEGTPSGAAPSSALAAVLKHSSALPPESAQVQGYDFNRGVDYHALLEAYGTTGFQATNFGRAVQQVNAMIEKKLEPLAVDEDHHEDLTQSRRPLTGCTIFLGYTSNLISSGIRETIRYLVQHNMVDVLVTTAGGVEEDLIKCLAPTYLGEFSLRGKELRENGINRIGNLLVPNDNYCKFEDWLMPILDQMVQEQNTEGVKWTPSKMISRLGKEINNPESVYYWAHKNHIPVLSPALTDGSLGDMIFFHSYKNPGLVLDIVEDLRLINMQAIFAKRTGMIILGGGVVKHHIANANLMRNGADYAVYINTAQEFDGSDSGARPDEAVSWGKIRMDAQPVKVYADASLVFPLLVAETFAQKADAFRAEKNED
notes: as catalyzed by deoxyhypusine synthase from rat testis; from tissue; host or cells: rat testis
For orientation: Km means the substrate concentration at which the rate is half of its maximum. With B1, the Km came out at 4.5 ± 0.7 µM.

For the origin of these results see patent US5344846A, “Compositions and methods for inhibiting deoxyhypusine synthase and the growth of cells” (The United States of America as represented by the …, priority 1992, dated 1994).
